These results are taken from patent US20240117043A1 (SHANGHAI JUNSHI BIOSCIENCES, published 2024).

Assay [1] addresses T1, recombinant human TIGIT (His Tag) (human, UniProt Q495A1 22-141).
T1 construct: Coated antigen of the ELISA; not shown: His tag
T1 sequence (looked up): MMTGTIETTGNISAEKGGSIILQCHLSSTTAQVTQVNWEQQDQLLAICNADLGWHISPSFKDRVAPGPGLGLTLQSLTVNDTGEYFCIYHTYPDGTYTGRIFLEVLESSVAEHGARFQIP
In words: ELISA, plate coated with recombinant human TIGIT (His Tag), detection with HRP anti-human IgG4 Fc; unit taken from the concentration axis [2b]. As to the method:
(§1) 2. Procedures [0241] a. A 96-well plate was coated with 1.5 μg/mL recombinant human TIGIT (His Tag) (Suzhou Junmeng) as the antigen at 100 μL/well and incubated at 37° C. for 1.5 h. [0242] b. The plate was washed 4 times with 300 μL/well 1×PBST, and 2% BSA was added at 200 μL/well. The plate was blocked at 37° C. for 1.5 h. [0243] c. The plate was washed 4 times with 300 μL/well 1×PBST, and serial dilutions of the bispecific antibodies JS-1,3,5,9 and a negative control: antibody (anti-KLH hIgG4) (initial concentration 1.0 μg/mL, 3-fold serially diluted to 12 concentration points, 100 μL/well) were added. The plate was incubated at 37° C. for 1 h. [0244] d. The plate was washed 4 times with 300 μL/well 1×PBST. [0245] e. 5000-fold diluted horseradish peroxidase (HRP)-conjugated mouse anti-human IgG4 Fc antibody (Southern Biotech, 9200-05) was added at 100 μL/well, and the plate was incubated at 37° C. for 1 h. […] The plate was washed 4 times with 300 μL/well 1×PBST. [0247] g. 0.1 mg/mL TMB was added at 100 μL/well, and after the plate was incubated at 37° C. for 15 min, a 2 M solution of hydrochloric acid was added at 100 μL/well to stop the reactions. [0248] h. The absorbance was measured at 450 nm/620 nm on a microplate reader, and data were analyzed using Graphpad Prism7.

For assay [2], the target named is T1, recombinant human TIGIT (His Tag). Kind of assay: ELISA, plate coated with recombinant human TIGIT (His Tag), detection with HRP anti-human IgG4 Fc; unit taken from the concentration axis [2a]. As for the experimental part:
as §1
In general terms: An ELISA detects its analyte on a solid surface through an enzyme-linked reagent.

For assay [3], the target named is T2, human TIGIT on the surface of Jurkat-hTIGIT cells (human, UniProt Q495A1 22-244).
T2 construct: whole, on cells; also called human TIGIT on the surface of Jurkat cells
T2 sequence (looked up): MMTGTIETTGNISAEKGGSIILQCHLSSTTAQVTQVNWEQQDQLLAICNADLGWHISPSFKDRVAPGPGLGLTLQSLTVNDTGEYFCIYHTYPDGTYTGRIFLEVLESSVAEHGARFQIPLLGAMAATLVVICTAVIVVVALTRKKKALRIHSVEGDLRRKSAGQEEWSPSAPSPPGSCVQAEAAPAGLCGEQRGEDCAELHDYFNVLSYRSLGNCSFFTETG
In words: flow cytometry, blocking of 1 ug/mL PVR-mFc binding to Jurkat-hTIGIT cells. As to the method:
Jurkat-hTIGIT cells (human T lymphocytes, human TIGIT positive) were incubated with different concentrations of the bispecific antibodies JS-1, JS-3, JS-5 and JS-9 and 1 μg/mL human PVR-mFc protein at 4° C. for 30 min, then washed and incubated with a fluorescence-labeled anti-mouse IgG secondary antibody (1:200) in a dark place at 4° C. for 30 min. Finally, the cells were collected using a flow cytometer (BD Canto II), and the fluorescent antibodies bound to the cell surface were detected. Raw data were analyzed using FlowJo to obtain MFI values, antibody dose-dependent binding curves (FIG. 4) were fitted using GraphPad, and IC50 was calculated. The positive controls were hu20 (a recombinant humanized anti-TIGIT monoclonal antibody) and JS-Ref (Hengrui) (an anti-TIGIT/CD112R bispecific antibody of Hengrui, expressed and purified according to the sequence of the patent WO2021180205), and the negative control was an anti-KLH-hIgG4 antibody.
For orientation: In flow cytometry, cells or beads pass a laser one at a time.

For assay [4], the target named is T3, recombinant human HX1 hCD112R Fc (human, UniProt Q6DKI7 41-171, limits assumed).
T3 construct: Coated antigen of the ELISA (Suzhou Junmeng); also called human CD112R; not shown: Fc part
T3 sequence (looked up): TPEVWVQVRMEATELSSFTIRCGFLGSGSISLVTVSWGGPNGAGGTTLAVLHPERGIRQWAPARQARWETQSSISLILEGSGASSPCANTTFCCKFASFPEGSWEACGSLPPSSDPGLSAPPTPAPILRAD
Kind of assay: ELISA, plate coated with recombinant human HX1 hCD112R Fc, detection with HRP anti-human IgG4 Fc; unit taken from the concentration axis [3b]. As to the method:
(§2) 2. Procedures [0255] a. A 96-well plate was coated with 1.0 μg/mL recombinant human HX1 hCD112R Fc (Suzhou Junmeng) as the antigen at 100 μL/well and incubated at 37° C. for 1.5 h. [0256] b. The plate was washed 4 times with 300 μL/well 1×PBST, and 2% BSA was added at 200 μL/well. The plate was blocked at 37° C. for 1.5 h. [0257] c. The plate was washed 4 times with 300 μL/well 1×PBST, and serial dilutions of the bispecific antibodies JS-1,3,5,9 and a negative control: antibody (anti-KLH hIgG4) (initial concentration 3.0 μg/mL, 3-fold serially diluted to 12 concentration points, 100 μL/well) were added. The plate was incubated at 37° C. for 1 h. [0258] d. The plate was washed 4 times with 300 μL/well 1×PBST. [0259] e. 5000-fold diluted horseradish peroxidase (HRP)-conjugated mouse anti-human IgG4 Fc antibody (Southern Biotech, 9200-05) was added at 100 μL/well, and the plate was incubated at 37° C. for 1 h. [0260] f. The plate was washed 4 times with 300 μL/well 1×PBST. [0261] g. 0.1 mg/mL TMB was added at 100 μL/well, and after the plate was incubated at 37° C. for 15 min, a 2 M solution of hydrochloric acid was added at 100 μL/well to stop the reactions. […] The absorbance was measured at 450 nm/620 nm on a microplate reader, and data were analyzed using Graphpad Prism7.

Assay [5] addresses T3, recombinant human HX1 hCD112R Fc. Kind of assay: ELISA, plate coated with recombinant human HX1 hCD112R Fc, detection with HRP anti-human IgG4 Fc; unit taken from the concentration axis [3a]. As to the method:
as §2

A further assay addresses T4, human CD112R-mFc protein (human, UniProt Q6DKI7 41-171, limits assumed).
T4 construct: also called human CD112R protein; not shown: mouse Fc (mFc)
T4 sequence (looked up): T3 sequence (looked up)
Kind of assay: flow cytometry, blocking of 1 ug/mL CD112R-mFc binding to CHO hCD112 cells. As to the method:
CHO hCD112 cells (Chinese hamster ovary cells, human CD112 positive) were incubated with different concentrations of the bispecific antibodies JS-1, JS-3, JS-5 and JS-9 and 1 μg/mL human CD112R-mFc protein at 4° C. for 30 min, then washed twice and incubated with a fluorescence-labeled anti-mouse IgG secondary antibody (1:200) in a dark place at 4° C. for 30 min. Finally, the cells were collected using a flow cytometer (BD Canto II), and the fluorescent antibodies bound to the cell surface were detected. Raw data were analyzed using FlowJo to obtain MFI values, antibody dose-dependent binding curves (FIG. 4) were fitted using GraphPad, and IC50 was calculated. The positive controls were hu52 (a recombinant humanized anti-CD112R monoclonal antibody) and JS-Ref (Hengrui) (an anti-TIGIT/CD112R bispecific antibody of Hengrui, expressed and purified according to the sequence of the patent WO2021180205), and the negative control was an anti-KLH-hIgG1 antibody.

The term EC50 denotes the concentration giving half of the maximal effect. For orientation: IC50 means the point on the concentration scale where inhibition reaches its midpoint. The low end stands for greater potency, the high end for weaker potency.

B1: hu20 (a recombinant humanized anti-TIGIT monoclonal antibody) (antibody, V domains shown)
VH: QVQLVQSGAEVKKPGASVKVSCKTSGYAFTEYTMHWVRQAPGKGLEWMGGINPNTGGTTYNQKFQGRVTLTVDKSSSTAYMELSSLRSEDTVVYYCAKLLRLMYYFDYWGQGTLVTVSS
VL: DIQMTQSPSSLSASVGDRVTITCQASQDVRTAVAWYQQKPGKAPKLLIYSASYRYTGVPSRFSGSGSGTDFTFTISSLQPEDIATYYCHQHYITPWTFGGGTKVEIKR
notes: vector hu20-2O18HC-3; also called hu20 mAb; anti-TIGIT antibody; not shown: heavy chain constant region
For the molecule B1, the EC50 in assay [1] is 6.63 ng/mL; in assay [2] it was 20.9 ng/mL. Besides, the IC50 in assay [3] was 1.98 nM.

B2: hu52 (a recombinant humanized anti-CD112R monoclonal antibody) (antibody, human IgG4 S228P, kappa, V domains shown)
VH: EVQLVESGGGLVKPGGSLRLSCAASGFTFSSYHMSWVRQAPGKGLELVSAINSNGINTYYLDTVKGRFTISRDNAKNSLYLQMNSLRAEDTAVYYCARHEDYYGFAMDYWGQGTLVTVSS
VL: DIVMTQSPDSLAVSLGERATINCKASQSVSNDVAWYQQKPGQPPKLLIYYVSHRFTGVPDRFSGSGSGTDFTLTISSLQAEDVAVYFCHQAYRSPWTFGQGTKLEIKR
notes: also called hu52 mAb; anti-CD112R antibody
Regarding B2, the EC50 in assay [4] came out at 2.62 ng/mL; in assay [5], 2.46 ng/mL. For the same molecule, the IC50 with human CD112R-mFc protein stood at 0.601 nM.
